From patent US20190225680A1 (NASCIENT, published 2019) come the findings set out here.

The Kd is the constant that tells how readily two partners part at equilibrium. Low values mean tighter binding, high ones weaker binding. Broadly, the koff is a measure of how fast the partners let go of each other. Broadly, the kon is a measure of how fast the partners come together. The low end stands for slower complex formation, the high end for faster complex formation.

The target in assay [1] is T1, human TNR rCd4-His-FBG (rat; human).
T1 sequence: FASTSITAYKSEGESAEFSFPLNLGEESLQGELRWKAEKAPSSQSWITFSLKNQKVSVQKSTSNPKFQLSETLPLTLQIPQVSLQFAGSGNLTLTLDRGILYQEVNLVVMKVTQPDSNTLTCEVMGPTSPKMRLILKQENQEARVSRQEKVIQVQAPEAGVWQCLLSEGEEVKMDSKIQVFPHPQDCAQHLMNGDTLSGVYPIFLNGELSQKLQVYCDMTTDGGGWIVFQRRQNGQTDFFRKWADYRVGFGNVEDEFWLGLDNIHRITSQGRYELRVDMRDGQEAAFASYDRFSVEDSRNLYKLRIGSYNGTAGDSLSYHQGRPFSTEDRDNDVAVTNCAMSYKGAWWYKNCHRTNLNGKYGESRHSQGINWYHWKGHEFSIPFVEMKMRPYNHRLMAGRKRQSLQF
The experiment in a line: SPR, 37 C, purified IgG4 captured on anti-human Fc. (In general: Surface plasmon resonance follows binding to a sensor surface in real time, without labels.)

Assay [2] concerns the target T2, mouse TNC rCd4-His-FBG (rat; mouse, UniProt P05540 207-386).
T2 construct: domain: domains 3 and 4; also called Mu TNC; mouse TNC FBG
T2 sequence: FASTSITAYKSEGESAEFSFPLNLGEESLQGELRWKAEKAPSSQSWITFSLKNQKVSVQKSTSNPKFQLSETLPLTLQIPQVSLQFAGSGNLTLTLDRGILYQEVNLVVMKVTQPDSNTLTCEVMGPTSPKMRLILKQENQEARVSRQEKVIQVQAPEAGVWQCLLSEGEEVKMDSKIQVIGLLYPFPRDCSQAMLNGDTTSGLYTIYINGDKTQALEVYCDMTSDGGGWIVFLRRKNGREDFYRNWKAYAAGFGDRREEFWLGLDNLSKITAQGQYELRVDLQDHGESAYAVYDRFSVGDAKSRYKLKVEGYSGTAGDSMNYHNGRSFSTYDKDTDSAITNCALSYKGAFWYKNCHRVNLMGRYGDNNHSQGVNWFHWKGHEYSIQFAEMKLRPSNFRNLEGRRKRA
The experiment in a line: SPR, BIAcore T100, 37 C, IgG4 captured on anti-human Fc, rCD4-His-FBG injected, 1:1 fit.

Assay [3] addresses T3, dog TNC rCD4-His-FBG (rat; dog).
T3 sequence: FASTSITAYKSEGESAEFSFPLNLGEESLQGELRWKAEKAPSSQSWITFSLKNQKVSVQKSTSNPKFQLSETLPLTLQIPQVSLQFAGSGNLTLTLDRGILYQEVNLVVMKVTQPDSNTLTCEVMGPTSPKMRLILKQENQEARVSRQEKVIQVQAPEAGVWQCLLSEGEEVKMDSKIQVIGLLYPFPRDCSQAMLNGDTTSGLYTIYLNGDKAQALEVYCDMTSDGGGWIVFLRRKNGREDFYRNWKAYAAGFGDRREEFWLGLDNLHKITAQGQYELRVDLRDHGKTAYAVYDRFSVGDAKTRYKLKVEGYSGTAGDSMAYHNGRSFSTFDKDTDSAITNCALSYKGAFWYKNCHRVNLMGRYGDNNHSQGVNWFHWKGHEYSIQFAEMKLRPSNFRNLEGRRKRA
Described as above.

Assay [4] addresses T4, human TNC rCd4-His-FBG (rat; human).
T4 sequence: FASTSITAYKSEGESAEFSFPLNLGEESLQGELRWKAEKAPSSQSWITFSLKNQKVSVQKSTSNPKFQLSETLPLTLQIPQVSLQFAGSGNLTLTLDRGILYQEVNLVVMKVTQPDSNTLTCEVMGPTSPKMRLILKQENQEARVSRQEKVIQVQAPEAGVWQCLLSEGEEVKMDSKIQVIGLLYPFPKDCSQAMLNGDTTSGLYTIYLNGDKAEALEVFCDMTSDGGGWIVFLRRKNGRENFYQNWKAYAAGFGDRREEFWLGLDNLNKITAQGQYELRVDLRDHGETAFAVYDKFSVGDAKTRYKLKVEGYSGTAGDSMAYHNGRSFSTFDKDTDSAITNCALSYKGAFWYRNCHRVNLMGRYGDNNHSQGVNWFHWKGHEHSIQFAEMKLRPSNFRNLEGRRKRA
The assay is described as above.

Assay [5] addresses T1, human TNR rCd4-His-FBG (rat; human). Described as above.
In assay [6] the target is T5, rat TNC rCd4-His-FBG (rat) (UniProt P05540).
T5 sequence: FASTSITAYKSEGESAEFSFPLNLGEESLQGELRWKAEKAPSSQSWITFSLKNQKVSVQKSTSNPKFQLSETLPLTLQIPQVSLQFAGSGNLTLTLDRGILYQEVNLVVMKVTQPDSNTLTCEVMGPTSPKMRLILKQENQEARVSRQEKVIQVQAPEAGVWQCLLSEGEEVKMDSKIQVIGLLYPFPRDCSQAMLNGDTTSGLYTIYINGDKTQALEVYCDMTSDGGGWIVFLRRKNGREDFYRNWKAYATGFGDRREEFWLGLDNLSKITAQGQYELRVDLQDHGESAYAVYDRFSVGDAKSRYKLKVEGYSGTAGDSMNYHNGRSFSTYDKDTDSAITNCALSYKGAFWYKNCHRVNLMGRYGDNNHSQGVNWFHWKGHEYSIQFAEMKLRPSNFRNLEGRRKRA
The description is as above.

Assay [7] concerns the target T2, mouse TNC rCd4-His-FBG. The experiment in a line: SPR off-rate screen, 25 C, IgG4 from supernatant captured on anti-human Fc, 15 nM antigen, 1:1 fit.
Assay [8] concerns the target T1, human TNR rCd4-His-FBG (rat; human). The experiment in a line: SPR off-rate screen, 25 C, IgG4 from supernatant captured on anti-human Fc, 100 nM antigen, 1:1 fit.
The next assay deals with T6, human TNR rCd4-His-FBG (rat; human, UniProt P05540 207-386).
T6 construct: domain: domains 3 and 4; also called Hu TNR; human TNR FBG
T6 sequence: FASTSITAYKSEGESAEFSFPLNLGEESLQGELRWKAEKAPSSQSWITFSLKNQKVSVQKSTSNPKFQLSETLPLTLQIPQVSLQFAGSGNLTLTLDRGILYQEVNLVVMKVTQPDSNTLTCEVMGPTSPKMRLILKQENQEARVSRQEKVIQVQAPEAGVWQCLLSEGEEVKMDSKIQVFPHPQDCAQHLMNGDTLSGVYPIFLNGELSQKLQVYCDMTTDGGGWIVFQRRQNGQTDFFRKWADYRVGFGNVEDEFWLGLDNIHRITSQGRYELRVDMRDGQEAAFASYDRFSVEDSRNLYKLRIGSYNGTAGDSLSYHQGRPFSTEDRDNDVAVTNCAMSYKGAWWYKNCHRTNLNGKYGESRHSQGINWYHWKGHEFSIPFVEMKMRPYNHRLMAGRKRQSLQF
The experiment in a line: SPR, BIAcore T100, 25 C, Fab captured, rCd4-FBG injected. As to the method: Experiments were performed using a BIAcore T100 instrument with CM5 sensor chip according to the protocol provided with the Human Fab Capture Kit (GE, 28-9583-25). Varying concentrations of rCd4-FBG were injected into a flow-cell with immobilised Fab and a reference flow-cell. After reference signal subtraction, the data was fitted to a global 1:1 fit using theT100 BIAevaluation software.

B1: 165_13_C3 IgG4 (antibody, V domains shown)
VH: QVQLVESGGGLVQPGRSLRLSCAASGFTFDDYAMHWVRQAPGKGLEWVSGISGSGGSTYYADSVKGRFTISRDNAKNSLYLQMNSLRAEDTALYYCAKSYQSDEDAFDIWGQGTMVTVSS
VL: DIQMTQSPASLPTPVGDRVTITCRASQYIQGFLNWYQQKPGKAPKLLIYDASNLETGVPSRFSGSGSGTDFTLTISSLQPEDFATYYCQQSYSTPQTFGQGTKVDIKR
As to B1, in [1], the fold lower affinity for human TNR FBG than for human TNC FBG is > 70 fold. For the same molecule, the Kd in the assay with mouse TNC rCd4-His-FBG [2] worked out at 0.46 nM; in assay [3], 1.8 nM; in assay [4], 0.072 nM; in [5], 35.8 nM; in assay [6], 1.22 nM. Moreover, the koff in the assay with mouse TNC rCd4-His-FBG [2] is 0.000445 s⁻¹; in [3], 0.0108 s⁻¹; in assay [4] it was 0.00083 s⁻¹; in assay [5], 0.0431 s⁻¹; in [6], 0.00473 s⁻¹; with mouse TNC rCd4-His-FBG [7] it was 3.3e-06 s⁻¹. Besides, the koff in assay [8] was determined as 0.012 s⁻¹. Besides, the kon in the assay with mouse TNC rCd4-His-FBG [2] stood at 972000 M⁻¹ s⁻¹; in assay [3], 5.97e+06 M⁻¹ s⁻¹; in assay [4], 1.16e+07 M⁻¹ s⁻¹; in [5], 1.2e+06 M⁻¹ s⁻¹; in assay [6] it was 3.89e+06 M⁻¹ s⁻¹.

B2: B12 Fab (Fab, V domains shown)
VH: QVQLVESGGGLVQPGRSLRLSCAASGFTFDDYAMHWVRQAPGKGLEWVSGISGSGGSTYYADSVKGRFTISRDNAKNSLYLQMNSLRAEDTALYYCAKDISAVPDTFDIWGQGTMVTVSS
VL: DIQMTQSPASLPTPVGDRVTITCRASQYIQGFLNWYQQKPGKAPKLLIYDASNLETGVPSRFSGSGSGTDFTLTISSLQPEDFATYYCQQSYSTPQTFGQGTKVDIKR
notes: Monomeric Fab from a dual promoter Fab vector; also called B12 parental antibody
As for B2, the “fold lower affinity for human TNR FBG than for human TNC FBG” value in the assay with human TNR rCd4-His-FBG was > 60 fold.
